Measured values published in article PMC10705377.

Target: GluA2-TARPγ2 fusion construct (rat GluA2, GT linker, mouse TARPγ2 truncated following M4) (rat | mouse)
Experiment: cryo-EM structure

**Q.** With “GluA2-TARPγ2 fusion construct (rat GluA2, GT linker, mouse TARPγ2 truncated following M4) (receptor)” as the substance, how does the stoichiometry N read?
**A.** 4
